Test results: PMC3466176, “Aminopropyltransferases Involved in Polyamine Biosynthesis Localize Preferentially in the Nucleus of Plant Cells” (PLoS ONE, 2012)

B1: His-tagged recombinant spermidine synthase 1 (SPDS1) (enzyme, Arabidopsis thaliana, UniProt Q9ZUB3 1-334, looked up)
chain: MDAKETSATDLKRPREEDDNGGAATMETENGDQKKEPACFSTVIPGWFSEMSPMWPGEAHSLKVEKVLFQGKSDYQDVIVFQSATYGKVLVLDGVIQLTERDECAYQEMITHLPLCSIPNPKKVLVIGGGDGGVLREVARHASIEQIDMCEIDKMVVDVSKQFFPDVAIGYEDPRVNLVIGDGVAFLKNAAEGSYDAVIVDSSDPIGPAKELFEKPFFQSVARALRPGGVVCTQAESLWLHMDIIEDIVSNCREIFKGSVNYAWTSVPTYPSGVIGFMLCSTEGPDVDFKHPLNPIDESSSKSNGPLKFYNAEIHSAAFCLPSFAKKVIESKAN
notes: Arabidopsis spermidine synthase 1 (SPDS1, At1g23820); The insert has no stop codon, so a C-terminal extension from the vector is likely (surmised); also called recombinant His-tagged aminopropyltransferase
B2: His-tagged recombinant spermidine synthase 2 (SPDS2) (enzyme, Arabidopsis thaliana, UniProt O48661 1-340, looked up)
chain: MSSTQEASVTDLPVKRPREAEEDNNGGAMETENGGGEIKEPSCMSSIIPGWFSEISPMWPGEAHSLKVEKILFQGKSDYQDVIVFQSATYGKVLVLDGVIQLTERDECAYQEMITHLPLCSISNPKKVLVIGGGDGGVLREVARHSSVEQIDICEIDKMVVDVAKQYFPNVAVGYEDPRVNLIIGDGVAFLKNAAEGTYDAVIVDSSDPIGPAKELFEKPFFESVNRALRPGGVVCTQAESLWLHMDIIEDIVSNCRDIFKGSVNYAWTSVPTYPSGVIGFMLCSSEGPQVDFKKPVSLIDTDESSIKSHCPLKYYNAEIHSAAFCLPSFAKKVIDSKAN
notes: Arabidopsis spermidine synthase 2 (SPDS2, At1g70310); The Protease 3C site lies before the start ATG, and no cleavage is reported; The insert has no stop codon, so a C-terminal extension from the vector is likely (surmised); also called recombinant His-tagged aminopropyltransferase
B3: His-tagged recombinant spermine synthase (SPMS) (enzyme, Arabidopsis thaliana, UniProt Q94BN2 1-359, looked up)
chain: MEGDVGIGLVCQNTMDGKASNGNGLEKTVPSCCLKAMACVPEDDAKCHSTVVSGWFSEPHPRSGKKGGKAVYFNNPMWPGEAHSLKVEKVLFKDKSDFQEVLVFESATYGKVLVLDGIVQLTEKDECAYQEMIAHLPLCSISSPKNVLVVGGGDGGVLREISRHSSVEVIDICEIDKMVIDVSKKFFPELAVGFDDPRVQLHIGDAAEFLRKSPEGKYDAIIVDSSDPVGPALALVEKPFFETLARALKPGGVLCNMAESMWLHTHLIEDMISICRQTFKSVHYAWSSVPTYPSGVIGFVLCSTEGPAVDFKNPINPIEKLDGAMTHKRELKFYNSDMHRAAFALPTFLRREVASLLAS
notes: Arabidopsis spermine synthase (SPMS, At5g53120); The Protease 3C site lies before the start ATG, and no cleavage is reported; The insert has no stop codon, so a C-terminal extension from the vector is likely (surmised); also called recombinant His-tagged aminopropyltransferase

Target: the molecule itself
Test: SEC; 50 to 100 µg of each affinity purified His-tagged enzyme alone on Superdex 200 10/300 GL, 0.2 mL/min, 20 mM Tris-HCl pH 7.6, 150 mM NaCl; fractions followed by absorbance at 280 nm

Stoichiometry N, 2:
B1, B2, B3
